The chains are these.
B1: glmS ribozyme (parent)
chain: AUAAAAGCGCCAGAACUACAGAAAUGUAGUUGACGAGGAGGAGGUUUAUCGAAUUUUCGGCGGAUGCCUCCAAA

± gives the standard error. This sample holds only a part of the variants without activity.

Common to all, as to details: with glucosamine-6-phosphate
The variants in series [1] derive from B1. In words: self-cleavage kobs at 40 uM GlcN6P; higher = faster cleavage; RNA array. An outline of the steps:
(§1)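 The measurements used barcoded ribozyme variants on sequenced MiSeq chips, transcribed in situ by E. coli RNA polymerase and tracked at 37 °C with a hybridised Cy3 probe. Glucosamine-6-phosphate, 40 μM to 10 mM in HEPES/KCl/Mg(OAc)2 buffer, was flowed in while tiles were imaged over ~14 h. Baseline-normalised signals, also normalised to non-cleaving reference variants, gave per-tile medians that were fit to one- or two-exponential decays for kobs. kcat and KM resulted from weighted Michaelis–Menten fits across concentrations.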

The variants in series [2] derive from B1. Kind of series: self-cleavage kobs at 160 uM GlcN6P; higher = faster cleavage; RNA array. In outline:
as §1

Series [3] covers variants of B1. In words: self-cleavage kobs at 640 uM GlcN6P; higher = faster cleavage; RNA array. An outline of the steps:
as §1

Series [4] covers variants of B1. In words: self-cleavage kobs at 2500 uM GlcN6P; higher = faster cleavage; RNA array. In outline:
as §1

Variants of B1 are the subject of series [5]. Kind of series: self-cleavage kobs at 10000 uM GlcN6P; higher = faster cleavage; RNA array. In outline: as §1

Turning to G40C A42C, in the series with glucosamine-6-phosphate [1], the “self-cleavage kobs at 40 uM GlcN6P” value was below 1e-05 s⁻¹. Moreover, the “self-cleavage kobs at 160 uM GlcN6P” value with glucosamine-6-phosphate [2] was below 1e-05 s⁻¹. Moreover, the “self-cleavage kobs at 640 uM GlcN6P” value in the series with glucosamine-6-phosphate [3] is below 1e-05 s⁻¹. The “self-cleavage kobs at 2500 uM GlcN6P” value with glucosamine-6-phosphate [4] is below 1e-05 s⁻¹. For the same variant, in the series with glucosamine-6-phosphate [5], the “self-cleavage kobs at 10000 uM GlcN6P” value is below 1e-05 s⁻¹.
Take G7U U54G C70G C71U: the “self-cleavage kobs at 40 uM GlcN6P” value in the series with glucosamine-6-phosphate [1] was 7.3e-05 ± 2.8e-05 s⁻¹. The “self-cleavage kobs at 10000 uM GlcN6P” value in the series with glucosamine-6-phosphate [5] came to 5.65e-05 ± 2.5e-05 s⁻¹.
In the case of A12C A33G U65C, in the series with glucosamine-6-phosphate [1], the “self-cleavage kobs at 40 uM GlcN6P” value was below 1e-05 s⁻¹.
Regarding A48C U69G, the “self-cleavage kobs at 40 uM GlcN6P” value in the series with glucosamine-6-phosphate [1] is below 1e-05 s⁻¹. Further, the “self-cleavage kobs at 160 uM GlcN6P” value in the series with glucosamine-6-phosphate [2] was below 1e-05 s⁻¹. The “self-cleavage kobs at 10000 uM GlcN6P” value with glucosamine-6-phosphate [5] was below 1e-05 s⁻¹.
As for A33C G35C, the “self-cleavage kobs at 40 uM GlcN6P” value with glucosamine-6-phosphate [1] is below 1e-05 s⁻¹. Also, the “self-cleavage kobs at 160 uM GlcN6P” value in the series with glucosamine-6-phosphate [2] is below 1e-05 s⁻¹. Further, in the series with glucosamine-6-phosphate [3], the “self-cleavage kobs at 640 uM GlcN6P” value is below 1e-05 s⁻¹. In addition, the “self-cleavage kobs at 10000 uM GlcN6P” value with glucosamine-6-phosphate [5] is below 1e-05 s⁻¹.
As to C10A A15U, the “self-cleavage kobs at 40 uM GlcN6P” value with glucosamine-6-phosphate [1] was below 1e-05 s⁻¹. For the same variant, in the series with glucosamine-6-phosphate [3], the “self-cleavage kobs at 640 uM GlcN6P” value was below 1e-05 s⁻¹.
G9U A33U A52U U56G: the “self-cleavage kobs at 40 uM GlcN6P” value in the series with glucosamine-6-phosphate [1] is below 1e-05 s⁻¹.
As to C10A G43U U45A, the “self-cleavage kobs at 40 uM GlcN6P” value with glucosamine-6-phosphate [1] is below 1e-05 s⁻¹. The “self-cleavage kobs at 640 uM GlcN6P” value with glucosamine-6-phosphate [3] is below 1e-05 s⁻¹. In addition, in the series with glucosamine-6-phosphate [4], the “self-cleavage kobs at 2500 uM GlcN6P” value is below 1e-05 s⁻¹.
For A6G A12C C71A, the “self-cleavage kobs at 40 uM GlcN6P” value with glucosamine-6-phosphate [1] is below 1e-05 s⁻¹.
A39C C50A: in the series with glucosamine-6-phosphate [1], the “self-cleavage kobs at 40 uM GlcN6P” value is below 1e-05 s⁻¹. Moreover, the “self-cleavage kobs at 160 uM GlcN6P” value with glucosamine-6-phosphate [2] is below 1e-05 s⁻¹. The “self-cleavage kobs at 640 uM GlcN6P” value with glucosamine-6-phosphate [3] is below 1e-05 s⁻¹. The “self-cleavage kobs at 10000 uM GlcN6P” value in the series with glucosamine-6-phosphate [5] is below 1e-05 s⁻¹.
In the case of G7U C34U, the “self-cleavage kobs at 40 uM GlcN6P” value with glucosamine-6-phosphate [1] is below 1e-05 s⁻¹. Moreover, the “self-cleavage kobs at 2500 uM GlcN6P” value with glucosamine-6-phosphate [4] is below 1e-05 s⁻¹.
For C50U G59C, in the series with glucosamine-6-phosphate [1], the “self-cleavage kobs at 40 uM GlcN6P” value was below 1e-05 s⁻¹. Also, the “self-cleavage kobs at 160 uM GlcN6P” value in the series with glucosamine-6-phosphate [2] is below 1e-05 s⁻¹. Further, the “self-cleavage kobs at 640 uM GlcN6P” value with glucosamine-6-phosphate [3] was below 1e-05 s⁻¹. For the same variant, in the series with glucosamine-6-phosphate [4], the “self-cleavage kobs at 2500 uM GlcN6P” value was below 1e-05 s⁻¹. The “self-cleavage kobs at 10000 uM GlcN6P” value with glucosamine-6-phosphate [5] is below 1e-05 s⁻¹.
Consider C8A C10G, for which, in the series with glucosamine-6-phosphate [1], the “self-cleavage kobs at 40 uM GlcN6P” value is below 1e-05 s⁻¹. In addition, in the series with glucosamine-6-phosphate [2], the “self-cleavage kobs at 160 uM GlcN6P” value was below 1e-05 s⁻¹. In addition, the “self-cleavage kobs at 640 uM GlcN6P” value with glucosamine-6-phosphate [3] was below 1e-05 s⁻¹. Besides, the “self-cleavage kobs at 2500 uM GlcN6P” value in the series with glucosamine-6-phosphate [4] was below 1e-05 s⁻¹. Further, the “self-cleavage kobs at 10000 uM GlcN6P” value in the series with glucosamine-6-phosphate [5] was below 1e-05 s⁻¹.
In the case of A14U A39G G44A C50A C71A, the “self-cleavage kobs at 40 uM GlcN6P” value in the series with glucosamine-6-phosphate [1] was below 1e-05 s⁻¹. Besides, the “self-cleavage kobs at 2500 uM GlcN6P” value with glucosamine-6-phosphate [4] is below 1e-05 s⁻¹. In addition, the “self-cleavage kobs at 10000 uM GlcN6P” value with glucosamine-6-phosphate [5] is below 1e-05 s⁻¹.
With G13A A14U C50G C68U, in the series with glucosamine-6-phosphate [1], the “self-cleavage kobs at 40 uM GlcN6P” value was 8.53e-05 ± 1.7e-05 s⁻¹. In the series with glucosamine-6-phosphate [3], the “self-cleavage kobs at 640 uM GlcN6P” value came to 0.000187 ± 4.7e-05 s⁻¹. For the same variant, the “self-cleavage kobs at 2500 uM GlcN6P” value with glucosamine-6-phosphate [4] amounted to 0.000455 ± 0.00016 s⁻¹. In addition, the “self-cleavage kobs at 10000 uM GlcN6P” value with glucosamine-6-phosphate [5] came out at 0.000103 ± 1.5e-05 s⁻¹.
Take G41C C67G: the “self-cleavage kobs at 40 uM GlcN6P” value in the series with glucosamine-6-phosphate [1] was below 1e-05 s⁻¹. For the same variant, in the series with glucosamine-6-phosphate [2], the “self-cleavage kobs at 160 uM GlcN6P” value was below 1e-05 s⁻¹. In addition, in the series with glucosamine-6-phosphate [3], the “self-cleavage kobs at 640 uM GlcN6P” value is below 1e-05 s⁻¹. Moreover, the “self-cleavage kobs at 2500 uM GlcN6P” value with glucosamine-6-phosphate [4] is below 1e-05 s⁻¹. Besides, the “self-cleavage kobs at 10000 uM GlcN6P” value with glucosamine-6-phosphate [5] is below 1e-05 s⁻¹.
For G9U G59U, the “self-cleavage kobs at 40 uM GlcN6P” value with glucosamine-6-phosphate [1] was below 1e-05 s⁻¹. The “self-cleavage kobs at 160 uM GlcN6P” value with glucosamine-6-phosphate [2] is below 1e-05 s⁻¹. Moreover, in the series with glucosamine-6-phosphate [5], the “self-cleavage kobs at 10000 uM GlcN6P” value was below 1e-05 s⁻¹.
Consider C10A G29C U56C A64G, for which the “self-cleavage kobs at 40 uM GlcN6P” value with glucosamine-6-phosphate [1] is below 1e-05 s⁻¹.
For C8U C16U C50G G60A G66U, in the series with glucosamine-6-phosphate [1], the “self-cleavage kobs at 40 uM GlcN6P” value was 0.000197 ± 6.5e-05 s⁻¹. The “self-cleavage kobs at 160 uM GlcN6P” value with glucosamine-6-phosphate [2] was found to be 9.7e-05 ± 4.4e-05 s⁻¹. Moreover, the “self-cleavage kobs at 10000 uM GlcN6P” value in the series with glucosamine-6-phosphate [5] was determined as 0.000101 ± 2.7e-05 s⁻¹.
Turning to G60C U65G, the “self-cleavage kobs at 40 uM GlcN6P” value with glucosamine-6-phosphate [1] is below 1e-05 s⁻¹. The “self-cleavage kobs at 160 uM GlcN6P” value with glucosamine-6-phosphate [2] was below 1e-05 s⁻¹. The “self-cleavage kobs at 640 uM GlcN6P” value with glucosamine-6-phosphate [3] was below 1e-05 s⁻¹. In addition, the “self-cleavage kobs at 10000 uM GlcN6P” value with glucosamine-6-phosphate [5] was below 1e-05 s⁻¹.
In the case of U30G U31G U46G U55A, the “self-cleavage kobs at 40 uM GlcN6P” value in the series with glucosamine-6-phosphate [1] came to 0.000118 ± 3.3e-05 s⁻¹. Further, the “self-cleavage kobs at 10000 uM GlcN6P” value with glucosamine-6-phosphate [5] turned out to be 0.00358 ± 0.00067 s⁻¹.
Turning to A14C G59C, the “self-cleavage kobs at 40 uM GlcN6P” value in the series with glucosamine-6-phosphate [1] is below 1e-05 s⁻¹. For the same variant, the “self-cleavage kobs at 160 uM GlcN6P” value in the series with glucosamine-6-phosphate [2] was below 1e-05 s⁻¹. Also, in the series with glucosamine-6-phosphate [3], the “self-cleavage kobs at 640 uM GlcN6P” value was below 1e-05 s⁻¹. In the series with glucosamine-6-phosphate [5], the “self-cleavage kobs at 10000 uM GlcN6P” value is below 1e-05 s⁻¹.

The values above are taken from the supplement of paper PMC7125110.
